Data: patent US20250263481A1

Molecular target: human CLDN18.2 expressed on cells (human)
Test: cell-based or functional assay

Human IgG1 isotype antibody
ADCC on KATOIII CLDN18.2 cells, LDH: max (% cytotoxity) (run A): 0.3%
ADCC on KATOIII CLDN18.2 cells, LDH: max (% cytotoxity) (run B): -5.51%
ADCC on KATOIII CLDN18.2 cells, LDH: max (% cytotoxity) (run C): -7.64%
ADCC on NCI-N87 CLDN18.2 cells, LDH: max (% cytotoxity) (run A): -6.73%
ADCC on NCI-N87 CLDN18.2 cells, LDH: max (% cytotoxity) (run B): -11.7%
ADCC on NCI-N87 CLDN18.2 cells, LDH: max (% cytotoxity) (run C): -9.22%
ADCC, FACS: Max (%): 8.3%
ADCC, LDH: Max (%): 1.5%
CDC on CT26 CLDN18.2 cells, LDH: max (% cytotoxity) (run A): 10.8%
CDC on CT26 CLDN18.2 cells, LDH: max (% cytotoxity) (run B): -0.23%
CDC on CT26 CLDN18.2 cells, LDH: max (% cytotoxity) (run C): -0.38%
CDC on KATOIII CLDN18.2 cells, LDH: max (% cytotoxity) (run A): -0.85%
CDC on KATOIII CLDN18.2 cells, LDH: max (% cytotoxity) (run B): -2.46%
CDC on KATOIII CLDN18.2 cells, LDH: max (% cytotoxity) (run C): -1.53%
